Data: PMC8208478, “A Bacteriophage DNA Mimic Protein Employs a Non-specific Strategy to Inhibit the Bacterial RNA Polymerase” (Frontiers in Microbiology, 2021)

Biological target: T1, His-tagged Gp44, full length (1–237) (bacteriophage SPO1)
T1 construct: Gp44, product of gene 44 of bacteriophage SPO1 of Bacillus subtilis, full length, residues 1-237, 27 kDa; The purified constructs came from pET-46 EK/LIC, which adds an N-terminal His-tag; C-terminal His-tagged and tag-free constructs (pDE2) were also made; PDB 6L6V holds only residues 1-55; also called Gp44^(1–237); recombinant Gp44; not shown: His-tag, N-terminal, kept
Assay: ITC; MicroCal PEAQ-ITC, 25°C, dialysis buffer; 30 μM β or β′ subunit in the cell, 300 μM Gp44 in the syringe, 19 injections of 2 μL at 120 s intervals
Settings: both partners purified

B1: recombinant RNAP β subunit used in ITC (species not named) (natural protein)
chain: MTGQLVQYGRHRQRRSYARISEVLELPNLIEIQTSSYQWFLDEGLREMFQDISPIEDFTGNLSLEFIDYSLGEPKYPVEESKERDVTYSAPLRVKVRLINKETGEVKDQDVFMGDFPIMTDTGTFIINGAERVIVSQLVRSPSVYFSGKVDKNGKKGFTATVIPNRGAWLEYETDAKDVVYVRIDRTRKLPVTVLLRALGFGSDQEILDLIGENEYLRNTLDKDNTENSDKALLEIYERLRPGEPPTVENAKSLLDSRFFDPKRYDLANVGRYKINKKLHIKNRLFNQRLAETLVDPETGEILAEKGQILDRRTLDKVLPYLENGIGFRKLYPNGGVVEDEVTLQSIKIFAPTDQEGEQVINVIGNAYIEEEIKNITPADIISSISYFFNLLHGVGDTDDIDHLGNRRLRSVGELLQNQFRIGLSRMERVVRERMSIQDTNTITPQQLINIRPVIASIKEFFGSSQLSQFMDQTNPLAELTHKRRLSALGPGGLTRERAGMEVRDVHYSHYGRMCPIETPEGPNIGLINSLSSYAKVNRFGFIETPYRRVDPETGKVTGRIDYLTADEEDNYVVAQANARLDDEGAFIDDSIVARFRGENTVVSRNRVDYMDVSPKQVVSAATACIPFLENDDSNRALMGANMQRQAVPLMQPEAPFVGTGMEYVSGKDSGAAVICKHPGIVERVEAKNVWVRRYEEVDGQKVKGNLDKYSLLKFVRSNQGTCYNQRPIVSVGDEVVKGEILADGPSMELGELALGRNVMVGFMTWDGYNYEDAIIMSERLVKDDVYTSIHIEEYESEARDTKLGPEEITRDIPNVGEDALRNLDDRGIIRIGAEVKDGDLLVGKVTPKGVTELTAEERLLHAIFGEKAREVRDTSLRVPHGGGGIIHDVKVFNREDGDELPPGVNQLVRVYIVQKRKISEGDKMAGRHGNKGVISKILPEEDMPYLPDGTPIDIMLNPLGVPSRMNIGQVLELHMGMAARYLGIHIASPVFDGAREEDVWETLEEAGMSRDAKTVLYDGRTGEPFDNRVSVGIMYMIKLAHMVDDKLHARSTGPYSLVTQQPLGGKAQFGGQRFGEMEVWALEAYGAAYTLQEILTVKSDDVVGRVKTYEAIVKGDNVPEPGVPESFKVLIKELQSLGMDVKILSGDEEEIEMRDLEDEEDAKQADGLALSGDEEPEETASADVERDVVTKE
Kd: 3.46 ± 0.27 µM
